Results taken from patent publication US6451762B1 (Novo Nordisk A/S, priority 1997, dated 2002).
Entries after “also recorded” stand apart in the source; their conditions may differ. Marks after values point to notes of the source that are not given here.

B1: Ribonuclease: molecular size standard, Mw 13.7 kDa (protein, UniProt P61823 27-150, looked up)
Ribonuclease pancreatic: KETAAAKFERQHMDSSTSAASSSNYCNQMMKSRNLTKDRCKPVNTFVHESLADVQAVCSQKNVACKNGQTNCYQSYSTMSITDCRETGSSKYPNCAYKTTQANKHIIVACEGNPYVPVHFDASV
B2: Catalase: molecular size standard, Mw 232 kDa (protein, UniProt P00432 2-527, looked up)
Catalase: ADNRDPASDQMKHWKEQRAAQKPDVLTTGGGNPVGDKLNSLTVGPRGPLLVQDVVFTDEMAHFDRERIPERVVHAKGAGAFGYFEVTHDITRYSKAKVFEHIGKRTPIAVRFSTVAGESGSADTVRDPRGFAVKFYTEDGNWDLVGNNTPIFFIRDALLFPSFIHSQKRNPQTHLKDPDMVWDFWSLRPESLHQVSFLFSDRGIPDGHRHMNGYGSHTFKLVNANGEAVYCKFHYKTDQGIKNLSVEDAARLAHEDPDYGLRDLFNAIATGNYPSWTLYIQVMTFSEAEIFPFNPFDLTKVWPHGDYPLIPVGKLVLNRNPVNYFAEVEQLAFDPSNMPPGIEPSPDKMLQGRLFAYPDTHRHRLGPNYLQIPVNCPYRARVANYQRDGPMCMMDNQGGAPNYYPNSFSAPEHQPSALEHRTHFSGDVQRFNSANDDNVTQVRTFYLKVLNEEQRKRLCENIAGHLKDAQLFIQKKAVKNFSDVHPEYGSRIQALLDKYNEEKPKNAVHTYVQHGSHLSAREKANL
B3: Ovalbumin: molecular size standard, Mw 43 kDa (protein, UniProt P01012 2-386, looked up)
Ovalbumin: GSIGAASMEFCFDVFKELKVHHANENIFYCPIAIMSALAMVYLGAKDSTRTQINKVVRFDKLPGFGDSIEAQCGTSVNVHSSLRDILNQITKPNDVYSFSLASRLYAEERYPILPEYLQCVKELYRGGLEPINFQTAADQARELINSWVESQTNGIIRNVLQPSSVDSQTAMVLVNAIVFKGLWEKAFKDEDTQAMPFRVTEQESKPVQMMYQIGLFRVASMASEKMKILELPFASGTMSMLVLLPDEVSGLEQLESIINFEKLTEWTSSNVMEERKIKVYLPRMKMEEKYNLTSVLMAMGITDVFSSSANLSGISSAESLKISQAVHAAHAEINEAGREVVGSAEAGVDAASVSEEFRADHPFLFCIKHIATNAVLFFGRCVSP

Assays:
[1] = Gel filtration on Sephacryl S-300 HR (aggregate formation, method 1); assay type: physicochemical; set-up: key to KAV: KAV=(VE-V0)/(VT-V0); fraction of available elution volume; details: for KAV: Sephacryl S-300 HR; for formation of high molecular weight soluble aggregates: gel filtration at neutral pH, formulation used (Table 1)
Method: A pH neutral aqueous buffer system is used in the gel filtration and the insulin derivatives in the aggregated state are applied to the column in the form of a pharmaceutical preparation at a concentration of 600 nmol insulin/ml. […] However, when the actual state of aggregation in a pharmaceutical preparation is to be assessed, the medium of the preparation, exclusive the Zn^2+ which is insulin bound, is used as the eluent for the gel filtration. A column of 28×1 cm is eluted at a rate of 15 ml/h. Insulin derivatives were injected (200 μl) as a standard formulation comprising 600 μM derivative, 200 or 300 μM Zn^2+, 20 mM NaCl (or varied), 16 mM phenol, 16 mM m-cresol, 7 mM sodium phosphate at pH 7.5. Exclusion limit of Sephacryl® S-300 HR is stated by the manufacturer, Pharmacia, as a molecular weight of 1,500 kDa for globular proteins and 400 kDa for linear dextrans. In practice the elution of solutes of different size is characterised by the available volume as KAV values: KAV=(VE-V0)/(VT-V0) where VE is elution volume, V0 is void volume, e.g. elution volume of blue dextran, VT is total volume. Thus, the KAV value is independent of column dimension. […]

[2] = Gel filtration method 2 on Superose 6HR (HPLC, 37° C.); assay type: physicochemical; details: 140 mM NaCl, 10 mM tris, pH 7.4; for KAV (Superose 6HR): standards; for KAV (Superose 6HR) 2Zn^2+/6 ins: 2 Zn2+/6 ins; for KAV (Superose 6HR) 3Zn^2+/6 ins: 3 Zn2+/6 ins
Method: An alternative method to measure the capability of insulin derivatives of forming soluble high molecular weight aggregates was developed, suitable for HPLC equipment. The column dimensions, injection volume, and flow rate correspond to the first method, whereas the temperature is increased to 37° C. and the phosphate buffer is changed to trishydroxymethylaminomethan hydrochloride and additional sodium chloride. The aggregated state of insulin is defined to elute before the gel filtration standard aldolase like in the first method.

[3] = Disappearance after subcutaneous injection in pigs; details: pig, in vivo, sc
Description: The gel filtration experiment using the conditions prescribed in this section is the direct physico-chemical method to reveal the potential aggregate formation property of an insulin derivative. Disappearance after subcutaneous injection in pigs reflects the combination of the albumin binding and polymer formation properties of the insulin derivative, besides a variety of biological factors.

Albumin = Albumin (Homo sapiens, UniProt P02768)
[4] = Gel filtration on Sephacryl S-300 HR (aggregate formation, method 1); assay type: physicochemical; set-up: key to KAV: KAV=(VE-V0)/(VT-V0); fraction of available elution volume
[5] = pH 7.4 eluent, standards applied dissolved in water
[6] = eluent 125 mM NaCl, 20 mM sodium phosphate pH 7.4, sample 600 μM derivative, 200 μM Zn2+, 0-20 mM NaCl, phenol, m-cresol, pH 7.5

Molecule	Disappearance in pigs, T50% [3] [h]	KAV (Superose 6HR) 2Zn^2+/6 ins [2]	KAV (Superose 6HR) 3Zn^2+/6 ins [2]	Albumin binding Kass (Albumin)	other results
Albumin: molecular size standard, Mw 67 kDa [reference compound]	–	–	–	–	KAV [1, 5]: ~0.38
Aldolase: molecular size standard, Mw 158 kDa [reference compound]	–	–	–	–	KAV [1, 5]: ~0.32; KAV (Superose 6HR) [2]: 0.50
Asp^A21 Lys^B29(N^ε-tetradecanoyl-) des(B30) HI	16.4	0.55	0.46	0.97 10^5M^−1	–
B9Asp, B27Glu human insulin [reference compound]	–	–	–	0 (mol/l)^−1	KAV [1, 5]: 0.71; KAV ([1]; pH 7.4 eluent, standards applied dissolved in water, listed as monomeric form of insulin): about 0.71; Disappearance T50% [3]: (1) h; KAV (Superose 6HR) [2]: 0.73
Ferritin [reference compound]	–	–	–	–	KAV [1, 5]: 0.19; KAV (Superose 6HR) [2]: 0.40
Lys^B29(N^ε cholesteryloxycarbonyl)	–	–	–	–	KAV [1, 6]: 0.00
Lys^B29(N^ε decanoyl)	–	–	–	0.06 × 10^5 (mol/l)^−1	KAV ([1]; eluent 125 mM NaCl, 20 mM sodium phosphate pH 7.4, sample 600 μM, 300 μM Zn2+): 0.67; Disappearance T50% [3]: 5.1 h
Lys^B29(N^ε lithocholyl	–	–	–	–	KAV ([4]; Sephacryl S-300 HR, pH 7.4 eluent, Zinc free): 0.74
Lys^B29(N^ε ω-carboxynonadecanoyl) des(B30)	–	–	–	36 × 10^5 (mol/l)^−1	KAV [1, 6]: 0.04; Disappearance T50% [3]: 21.9 h
Lys^B29(N^ε-cholanoyl-) des(B30) HI	20.1	0.40	0.17	0.48 10^5M^−1	–
Lys^B29(N^ε-dehydrolithocholoyl-) des(B30) HI	>34	0.05	0.03	0.26 10^5M^−1	–
Lys^B29(N^ε-deoxycholoyl-γ-Glu-) des(B30) HI	13.9	0.20	0.07	0.03 10^5M^−1	–
Lys^B29(N^ε-hexadecanoyl-α-amido-γ-Glu-) des(B30) HI	15.3	0.38	0.41	0.56 10^5M^−1	–
Lys^B29(N^ε-lithocholoyl-) des(B30) HI	>34	−0.01	0.23	0.38 10^5M^−1	–
Lys^B29(N^ε-lithocholoyl-α-amido-γ-Glu-) des(B30) HI	>34	−0.02	0.00	0.23 10^5M^−1	–
Lys^B29(N^ε-lithocholoyl-β-Ala-) des(B30) HI	–	0.00	0.13	–	–
Lys^B29(N^ε-lithocholoyl-β-Asp-) des(B30) HI	–	0.18	0.11	–	–
Lys^B29(N^ε-lithocholoyl-γ-aminobutanoyl-) des(B30) HI	–	0.06	0.00	–	–
Lys^B29(N^εlithocholyl-α-Glu-) des(B30) human insulin	–	–	–	0.3 × 10^5 (mol/l)^−1	KAV [1, 6]: 0.53; formation of high molecular weight soluble aggregates [1]: only the first forms aggregates; also recorded: incapable of forming soluble high molecular weight aggregates; Disappearance T50% [3]: 11.8 h
Lys^B29(N^εlithocholyl-γ-Glu-) des(B30) human insulin [Lys^B29(N^ε lithocholyl-γ-Glu-) des(B30)]	22.8	0.00	−0.01	–	KAV [1, 6]: 0.04*; formation of high molecular weight soluble aggregates [1]: capable of forming soluble high molecular weight aggregates; formation of high molecular weight soluble aggregates ([1]; listed as Ly B^29(N^εlithocholyl-γ-Glu-) des(B30) human insulin): capable of forming high molecular weight soluble aggregates; Disappearance T50% [3]: 22.8 h
Lys^B29(N^εtetradecanoyl) des(B30) human insulin [Lys^B29(N^ε tetradecanoyl) des(B30), reference compound]	–	0.58	0.56	–	KAV [1, 6]: 0.51; formation of high molecular weight soluble aggregates [1]: incapable of forming soluble high molecular weight aggregates; Disappearance T50% [3]: 14.3 h
Lys^B29(N^εω-carboxyheptadecanoyl) des(B30) human insulin	–	–	–	25 × 10^5 (mol/l)^−1	KAV [1, 6]: 0.05; KAV ([1]; medium of the preparation as eluent: 5 mM sodium phosphate pH 7.5, 10 mM NaCl, 16 mM phenol, 16 mM m-cresol, 1.6% glycerol, 2-3 Zn2+/hexamer): about 0.45; formation of high molecular weight soluble aggregates [1]: capable of forming high molecular weight soluble aggregates; degree of aggregation in the published formulation ([1]; medium of the preparation as eluent, 10 mM NaCl, 2-3 Zn2+/hexamer): no high molecular weight aggregates of insulin derivatives was present; formation of aggregates ([4]; gel filtration, absence of Zn2+ (0 Zn2+/hexamer)): aggregates are not formed; Disappearance T50% [3]: 18.7 h
Thyroglobulin: molecular size standard, Mw 669 kDa [reference compound]	–	–	–	–	KAV [1, 5]: 0.08; KAV (Superose 6HR) [2]: 0.28
B1	–	–	–	–	KAV [1, 5]: 0.63; KAV (Superose 6HR) [2]: 0.72
B2	–	–	–	–	KAV [1, 5]: 0.30
B3	–	–	–	–	KAV (Superose 6HR) [2]: 0.58
